Reference: publication PMC4540320, “A Newly-Identified Polymorphism in Rhesus Macaque Complement Factor H Modulates Binding Affinity for Meningococcal FHbp” (PLoS ONE, 2015)

Legend:
[1] = molecular target: rhesus macaque serum Factor H, sequence type HP/HP (H352 with P360, homozygous) (rhesus macaque (endogenous in serum)); assay: SPR; Biacore X100 Plus, CM5 chip with immobilised goat anti-human FH; FH (~600 RU) captured from a 1:50 serum dilution; FHbp 3.16 to 316 nM in solution, single-cycle kinetics, 1:1 binding model
[2] = molecular target: rhesus macaque serum Factor H, sequence type HP/YP (heterozygous) (rhesus macaque (endogenous in serum)); assay: as above
[3] = molecular target: rhesus macaque serum Factor H, sequence type HP/YS (heterozygous) (rhesus macaque (endogenous in serum)); assay: as above
[4] = molecular target: rhesus macaque serum Factor H, sequence type YS/YP (heterozygous) (rhesus macaque (endogenous in serum)); assay: as above
[5] = molecular target: T1, human complement Factor H (human (endogenous in serum), UniProt P08603 19-1231); assay: SPR; as the serum capture assay, but with human FH purified from the same subject captured on immobilised goat anti-human FH; FHbp in solution, single-cycle kinetics, 1:1 binding model; details: both partners purified
T1 construct: also called human FH; human serum FH; source: endogenous, human serum; also purified from the same subject

[6] = molecular target: T1, human complement Factor H; assay: SPR; Biacore X100 Plus, CM5 chip with immobilised goat anti-human FH; FH (~600 RU) captured from a 1:50 serum dilution; FHbp 3.16 to 316 nM in solution, single-cycle kinetics, 1:1 binding model; details: one partner purified

T1 sequence (P08603 19-1231): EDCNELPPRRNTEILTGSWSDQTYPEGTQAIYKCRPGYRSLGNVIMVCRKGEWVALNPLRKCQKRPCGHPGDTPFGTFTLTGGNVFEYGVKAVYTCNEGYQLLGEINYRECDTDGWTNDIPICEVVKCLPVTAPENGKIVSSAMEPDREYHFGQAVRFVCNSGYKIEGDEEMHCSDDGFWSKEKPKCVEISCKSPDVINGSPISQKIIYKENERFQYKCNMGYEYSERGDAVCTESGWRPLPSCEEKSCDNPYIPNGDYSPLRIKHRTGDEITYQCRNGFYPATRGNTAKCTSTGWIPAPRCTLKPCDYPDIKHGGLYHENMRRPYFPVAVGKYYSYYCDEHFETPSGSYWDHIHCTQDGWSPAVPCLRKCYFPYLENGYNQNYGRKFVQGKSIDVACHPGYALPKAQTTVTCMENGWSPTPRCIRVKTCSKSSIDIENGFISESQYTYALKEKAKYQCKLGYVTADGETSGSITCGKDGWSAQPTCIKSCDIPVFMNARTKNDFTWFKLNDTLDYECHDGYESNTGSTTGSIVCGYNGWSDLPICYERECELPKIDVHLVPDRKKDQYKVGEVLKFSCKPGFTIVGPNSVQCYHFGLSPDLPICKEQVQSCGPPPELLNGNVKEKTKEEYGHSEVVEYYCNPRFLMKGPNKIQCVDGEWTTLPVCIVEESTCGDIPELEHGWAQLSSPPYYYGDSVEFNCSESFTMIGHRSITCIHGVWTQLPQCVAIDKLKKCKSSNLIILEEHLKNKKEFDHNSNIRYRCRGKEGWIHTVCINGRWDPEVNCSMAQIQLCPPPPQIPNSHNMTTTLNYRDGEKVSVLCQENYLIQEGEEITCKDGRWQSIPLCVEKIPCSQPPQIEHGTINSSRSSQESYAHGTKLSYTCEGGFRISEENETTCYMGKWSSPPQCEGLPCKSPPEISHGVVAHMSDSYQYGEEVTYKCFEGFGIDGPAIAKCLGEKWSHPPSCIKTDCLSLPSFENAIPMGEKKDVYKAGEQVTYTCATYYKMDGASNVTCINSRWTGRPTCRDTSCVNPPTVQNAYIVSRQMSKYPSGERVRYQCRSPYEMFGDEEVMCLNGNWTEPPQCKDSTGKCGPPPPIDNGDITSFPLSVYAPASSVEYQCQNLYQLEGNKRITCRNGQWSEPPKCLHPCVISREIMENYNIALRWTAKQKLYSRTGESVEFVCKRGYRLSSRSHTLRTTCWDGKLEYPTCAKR

How did the Kd [1] turn out when “recombinant Factor H binding protein (FHbp) ID 1 (from UniProt Q9JXV4 20-274) (natural protein)” was run?
Its Kd is 100 nM.

And the kon [1]?
Its kon is 180000 M⁻¹ s⁻¹.

And the Kd [2]?
Its Kd is 18.2 nM.

And the kon [2]?
Its kon is 180000 M⁻¹ s⁻¹.

And the Kd [3]?
Its Kd is 99.5 nM.

What about the kon [3] of the same molecule?
Its kon is 190000 M⁻¹ s⁻¹.

And the Kd [4]?
Its Kd is 10.4 nM.

What about the kon [4] of the same molecule?
Its kon is 180000 M⁻¹ s⁻¹.

B1: recombinant Factor H binding protein (FHbp) ID 1 (natural protein)
chain: CSSGGGGVAADIGAGLADALTAPLDHKDKGLQSLTLDQSVRKNEKLKLAAQGAEKTYGNGDSLNTGKLKNDKVSRFDFIRQIEVDGQLITLESGEFQVYKQSHSALTAFQTEQIQDSEHSGKMVAKRQFRIGDIAGEHTSFDKLPEGGRATYRGTAFGSDDAGGKLTYTIDFAAKQGNGKIEHLKSPELNVDLAAADIKPDGKRHAVISGSVLYNQAEKGSYSLGIFGGKAQEVAGSAEVKTVNGIRHIGLAAKQ
notes: also called meningococcal FHbp; source: recombinant, purified as described previously [14] with a second ion exchange chromatography step (HiTrap SP HP)
Which Kd [5] does the source give for B1 here?
The Kd was 18.2 nM.

What about the kon [5] of the same molecule?
Its kon is 220000 M⁻¹ s⁻¹.

What about the Kd [6] of the same molecule?
Its Kd is 19.8 nM.

What about the kon [6] of the same molecule?
Its kon is 190000 M⁻¹ s⁻¹.
